Source: US20070036810A1, “Cyclic amp response element activator proteins and uses related thereto” (priority 2003, published 2007)
Entries after “also recorded” stand apart in the source; their conditions may differ.

Key:
[1] = tested on: pCRE-Luc reporter (cyclic AMP response element); assay: pCRE-Luc reporter assay of CREAP1 deletion fragments in Hela cells; type: cell-based; details: Flag-CREAP1 deletion constructs co-transfected with pCRE-Luc in Hela cells; Dual-Glo Luciferase 40 hrs after transfection
Procedure: CREAP1 protein amino acids 1-170, 1-356, […], 1-580 and 170-650 are inserted into pFlag-CMV4 expression vector (Sigma, St. Louis, Mo.) by utilizing PCR strategy familiar to one of skill in the art. 10^4 Hela cells are split into each well of 96 well tissue culture plates. Cells are transfected 16 hours later with 100 ng of pCRE-Luc reporter construct, 30 ng of Renilla luciferase control plasmid together with 100 ng of pCMVSPORT6, pCMVSPORT-CREAP1 and different Flag-CREAP1 deletion fusion constructs respectively. Transfection is done with Fugene6 reagent (Roche Applied Biosciences) following the manufacturer's instructions. A Dual-Glo Luciferase assay (Promega) is conducted 40 hrs after transfection. Firefly luciferase counts are normalized to Renilla luciferase and plotted.
To dissect the functional domains within the CREAP1 molecule, CREAP1 protein fragments of amino acids 1-170, 1-356, 1-494, 1-580 and 170-650 were subcloned into pFlag-CMV4 vector by utilizing PCR based strategy and tested for function in a Dual Glo Luciferase assay as described above.

[2] = target: T1, endogenous CREB1 (Homo sapiens, UniProt P16220); assay: Immuno-precipitation of FLAG-tagged CREAP1 variants and Western blot against CREB in HEK293 cells; type: binding; details: M2-agarose immuno-precipitation, Western blot against CREB
T1 construct: endogenous in cells; host or cells: HEK293
T1 sequence (P16220 whole entry): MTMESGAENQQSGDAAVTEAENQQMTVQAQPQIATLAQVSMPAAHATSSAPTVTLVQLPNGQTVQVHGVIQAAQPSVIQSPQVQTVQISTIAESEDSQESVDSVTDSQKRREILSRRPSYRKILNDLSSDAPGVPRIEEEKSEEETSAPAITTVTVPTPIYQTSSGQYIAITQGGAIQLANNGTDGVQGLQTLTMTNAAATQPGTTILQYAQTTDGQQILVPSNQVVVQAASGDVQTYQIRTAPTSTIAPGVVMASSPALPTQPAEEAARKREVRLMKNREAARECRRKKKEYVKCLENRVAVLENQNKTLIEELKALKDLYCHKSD
Procedure: To determine if CREAP1 can interact directly with CREB, K1 and K5 variants of CREAP1 (see Table 1) were transfected into HEK293 cell grown in 100 mm dishes (Falcon) using Fugene6 reagent (Roche Applied Science) according to the protocol provided by the manufacturer. 40 hours after transfection, cells were scraped from the plates in PBS and lysed in 800 μl of Low Stringency buffer containing: 10 mM HEPES pH 7.6, 250 mM NaCl, 5 mM EDTA, 1 mM DTT, 0.1% NP-40 and freshly dissolved protease inhibitors. Immuno-precipitation was carried out using M2-agarose beads (Sigma). Precipitated proteins were separated on 4-20% of SDS-PAGE (Invitrogen) and transferred to nitrocellulose membrane (Invitrogen). Western blot were performed using antibody against CREB (Cell Signaling Technology). As a negative control expression construct encoding FLAG-tagged human histone deacetylase 1 (HDAC1) was used.

association with endogenous CREB1 [2]: associated with endogenous CREB1
B1: K1: CREAP1 fragment, amino acids 1-170, SEQ ID NO 32, Flag fusion (protein)
chain: MATSNNPRKFSEKIALHNQKQAEETAAFEEVMKDLSLTRAARLQLQKSQYLQLGPSRGQYYGGSLPNVNQIGSGTMDLPFQPSGFLGEALAAAPVSLTPFQSSGLDTSRTTRHHGLVDRVYRERGRLGSPHRRPLSVDKHGRQADSCPYGTMYLSPPADTSWRRTNSDSA
modifications: Flag tag; human
Activity [1]: not sufficient for its function; also recorded: Inactive
